Data from US10772972B2, “Anti-STEAP2 antibody drug conjugates, and compositions and uses thereof” (Regeneron Pharmaceuticals, Inc., priority 2016, dated 2020).

T1: hSTEAP2 fused to GFP (Homo sapiens, UniProt Q8NFT2)
T1 construct: expressed in transfected cells; host or cells: HEK293
T1 sequence (Q8NFT2 1-490): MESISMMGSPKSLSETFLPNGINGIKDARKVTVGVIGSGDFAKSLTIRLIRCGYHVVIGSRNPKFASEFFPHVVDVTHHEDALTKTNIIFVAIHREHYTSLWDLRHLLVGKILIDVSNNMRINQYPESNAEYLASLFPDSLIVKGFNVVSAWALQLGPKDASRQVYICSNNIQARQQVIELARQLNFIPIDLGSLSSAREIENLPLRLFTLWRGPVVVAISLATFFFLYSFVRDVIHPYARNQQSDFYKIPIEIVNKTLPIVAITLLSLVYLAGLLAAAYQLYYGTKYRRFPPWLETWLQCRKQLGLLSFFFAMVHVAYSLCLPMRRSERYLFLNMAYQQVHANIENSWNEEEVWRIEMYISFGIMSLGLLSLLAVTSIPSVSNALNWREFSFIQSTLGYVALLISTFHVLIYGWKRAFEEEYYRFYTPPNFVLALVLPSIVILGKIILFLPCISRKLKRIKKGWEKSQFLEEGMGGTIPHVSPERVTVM

T2: hSTEAP3 fused to GFP (Homo sapiens, UniProt Q658P3)
T2 construct: expressed in transfected cells; host or cells: HEK293
T2 sequence (Q658P3 1-488): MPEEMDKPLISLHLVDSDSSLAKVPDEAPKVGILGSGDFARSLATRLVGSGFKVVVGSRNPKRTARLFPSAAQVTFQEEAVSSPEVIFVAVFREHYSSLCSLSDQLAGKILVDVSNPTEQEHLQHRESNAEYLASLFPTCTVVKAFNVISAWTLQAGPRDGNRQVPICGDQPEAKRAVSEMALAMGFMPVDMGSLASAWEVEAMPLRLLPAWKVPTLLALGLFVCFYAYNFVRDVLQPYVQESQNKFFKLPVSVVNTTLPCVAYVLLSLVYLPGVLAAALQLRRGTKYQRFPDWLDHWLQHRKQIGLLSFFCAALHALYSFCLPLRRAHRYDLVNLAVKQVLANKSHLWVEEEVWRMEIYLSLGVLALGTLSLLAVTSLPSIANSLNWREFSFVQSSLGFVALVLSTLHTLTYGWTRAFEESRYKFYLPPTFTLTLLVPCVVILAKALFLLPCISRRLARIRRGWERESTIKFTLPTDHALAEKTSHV

T3: hSTEAP4 fused to GFP (Homo sapiens, UniProt Q687X5)
T3 construct: expressed in transfected cells; host or cells: HEK293
T3 sequence (Q687X5 1-459): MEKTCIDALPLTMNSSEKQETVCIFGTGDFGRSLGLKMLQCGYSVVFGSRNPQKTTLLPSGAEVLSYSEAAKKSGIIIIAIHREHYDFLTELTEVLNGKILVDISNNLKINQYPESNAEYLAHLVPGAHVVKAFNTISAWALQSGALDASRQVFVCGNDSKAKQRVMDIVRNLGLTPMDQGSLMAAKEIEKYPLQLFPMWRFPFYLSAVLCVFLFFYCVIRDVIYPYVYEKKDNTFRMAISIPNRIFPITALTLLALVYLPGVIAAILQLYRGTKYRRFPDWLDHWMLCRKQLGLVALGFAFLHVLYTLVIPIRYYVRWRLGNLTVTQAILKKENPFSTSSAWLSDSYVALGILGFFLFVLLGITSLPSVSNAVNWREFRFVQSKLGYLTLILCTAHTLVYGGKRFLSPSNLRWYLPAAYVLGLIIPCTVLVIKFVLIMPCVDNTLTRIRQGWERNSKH


What was measured:
[1] = system: FADU cells (STEAP2 negative); test: FACS binding to STEAP2-negative FADU cells; conditions: human-Fc antibodies
Description: (§1) The ability of anti-STEAP2 antibodies to selectively bind to human six-transmembrane epithelial antigen of prostate 2 (STEAP2) endogenously expressing cell lines was determined via FACS analysis.
(§2) Briefly, 1×10^5 cells were incubated with 10 μg/ml of anti STEAP2 antibodies, or isotype control antibodies for 30 min on ice in antibody dilution buffer. Following one wash with antibody dilution buffer, cells were incubated with 10 μg/ml of PE conjugated anti-human or anti mouse Fc secondary antibodies for 30 min on ice. Following one additional wash, samples were incubated with Cytofix (1% formaldehyde) for 20 minutes. After one final wash, samples were filtered through a Pall 96 well filtration block, run on a Hypercyt® cytometer and analyzed in ForeCyt™ (IntelliCyt, Albuquerque, N. Mex.). Mean fluorescence intensities (MFI) were expressed as fold change above unstained levels (background). The average fold above background at antibody concentrations of 100-300 nM were determined. For cell binding EC50 determinations, mAb concentrations ranged from 300 nM to […] and EC50 values were determined from a four-parameter logistic equation over a 12-point response curve (GraphPad Prism).

[2] = system: SKBR3 cells (STEAP2 negative); test: FACS binding to STEAP2-negative SKBR3 cells; conditions: human-Fc antibodies
Description: as §1, §2

[3] = system: Raji cells (STEAP2 negative); test: FACS binding to STEAP2-negative Raji cells; conditions: human-Fc antibodies
Description: as §1, §2

[4] = system: C4-2 cells (high-STEAP2 expressing); test: Internalization and total binding on C4-2 cells (imaging, qualitative score); assay type: cell-based, human; design: key: − (no internalization or binding); +(weak internalization or binding); ++(moderate internalization or binding); +++(robust internalization or binding); conditions: 10 μg/ml antibody
Description: Briefly, 20,000 C4-2 cells were seeded in PDL coated 96 well plates. The next day, cells were incubated with anti-human STEAP2 antibodies (10 μg/ml) for 30 min on ice followed by two PBS washes. Cells were then incubated with alexa488-conjugated anti-hFc Fab secondary antibody for 30 minutes on ice, followed by two additional PBS washes. Antibodies were allowed to internalize for 1 h at 37° C. in internalization buffer (PBS+2% FBS) or were maintained at 4° C. Cells were fixed in 4% formaldehyde, nuclei were stained with DRAQ5 (Cell signaling), and images were acquired on the ImageXpress micro XL (Molecular Devices).
A qualitative visual assessment of the total binding intensity and the intensity of antibodies that had internalized into vesicles was performed and scored according to the following criteria: − (no internalization or binding), +(weak internalization or binding), ++(moderate internalization or binding) and +++(robust internalization or binding).

hSTEAP1 fused to GFP = molecular target: T4, hSTEAP1 fused to GFP (Homo sapiens, UniProt Q9UHE8); test: Specificity: binding to HEK293 cells transfected with hSTEAP1-GFP; design: key: Wells with GFP positive cells that bound anti STEAP2 antibodies were scored as positive (+); those that did not bind anti STEAP2 antibodies were scored as negative (−); conditions: transient transfection, 48 h
T4 construct: expressed in transfected cells; host or cells: HEK293
T4 sequence (Q9UHE8 whole entry, the tested form may be a part): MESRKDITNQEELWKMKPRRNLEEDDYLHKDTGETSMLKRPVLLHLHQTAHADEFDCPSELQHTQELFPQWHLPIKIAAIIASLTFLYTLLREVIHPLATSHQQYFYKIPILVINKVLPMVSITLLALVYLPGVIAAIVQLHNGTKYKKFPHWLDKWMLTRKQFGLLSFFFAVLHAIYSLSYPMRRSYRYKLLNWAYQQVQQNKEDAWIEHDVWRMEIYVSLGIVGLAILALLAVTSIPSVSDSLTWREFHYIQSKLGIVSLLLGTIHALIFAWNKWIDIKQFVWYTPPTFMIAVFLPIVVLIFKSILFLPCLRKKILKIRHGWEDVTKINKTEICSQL
Description: (§3) Selected STEAP2 antibodies were then tested for binding to other human (h) STEAP family members (STEAP1, STEAP3, and STEAP4). To assess anti STEAP2 antibody specificity, plasmid constructs expressing hSTEAP1, hSTEAP2, hSTEAP3 or hSTEAP4 fused to Green Fluorescent Protein (GFP) were transiently introduced into HEK293 cells via lipofectamine 2000 based methodology. After 48 h, transiently transfected cells were stained with anti STEAP2 antibodies and imaged as described above for the internalization assay.

hSTEAP2 fused to GFP = molecular target: T1, hSTEAP2 fused to GFP; test: Specificity: binding to HEK293 cells transfected with hSTEAP2-GFP; design: key: Wells with GFP positive cells that bound anti STEAP2 antibodies were scored as positive (+); those that did not bind anti STEAP2 antibodies were scored as negative (−); conditions: transient transfection, 48 h
Description: as §3

hSTEAP3 fused to GFP = molecular target: T2, hSTEAP3 fused to GFP; test: Specificity: binding to HEK293 cells transfected with hSTEAP3-GFP; design: key: Wells with GFP positive cells that bound anti STEAP2 antibodies were scored as positive (+); those that did not bind anti STEAP2 antibodies were scored as negative (−); conditions: transient transfection, 48 h
Description: as §3

hSTEAP4 fused to GFP = molecular target: T3, hSTEAP4 fused to GFP; test: Specificity: binding to HEK293 cells transfected with hSTEAP4-GFP; design: key: Wells with GFP positive cells that bound anti STEAP2 antibodies were scored as positive (+); those that did not bind anti STEAP2 antibodies were scored as negative (−); conditions: transient transfection, 48 h
Description: as §3

Molecule | FADU Avg F.A.B (Fold Above Background) [1] [fold] | SKBR3 Avg F.A.B (Fold Above Background) [2] [fold] | Raji Avg F.A.B (Fold Above Background) [3] [fold] | Internalization (37° C., 1 h) Qualitative Score [4] | Total Binding (4° C.) Qualitative Score [4] | Binding to hSTEAP1-GFP transfected HEK293 cells (hSTEAP1 fused to GFP) | Binding to hSTEAP2-GFP transfected HEK293 cells (hSTEAP2 fused to GFP) | Binding to hSTEAP3-GFP transfected HEK293 cells (hSTEAP3 fused to GFP) | Binding to hSTEAP4-GFP transfected HEK293 cells (hSTEAP4 fused to GFP)
H1H7972P: anti-STEAP2 antibody, HCVR/LCVR SEQ ID NOs 186/194 (antibody, V domains shown) VH: QVQLQQSGPGLVKPSQTLSLTCAISGDSVSSNSAAWNWIRQSPSRGLEWLGRTYYRSKWYNDYVVSVKSRIIFNPDTSKNQFSLQLNSVTPEDTAVYYCARVRQDYRSGPFDYWGQGTLVTVSS VL: EIVMTQSPVTLSVSPGERATLSCWASQSVSSSLAWYQQKPGQAPRLLIYGASTRATGIPARFSGSGSGTGFTLTISSLQSEDFAVYYCQQYNNWPFTFGPGTKVDIK | 2 | 3 | 59 | + | + | − | + | − | −
H2M7810N: anti-STEAP2 antibody, HCVR/LCVR SEQ ID NOs 346/354 (antibody, V domains shown) VH: QVQLVESGGGVVQPGRSLRLSCAVSGFTSSTYGMNWVRQAPGKGLEWVAVISYDGSNKYYADSVKGRFTISRDNSKNTLYLQMNSLRPEDTAVYYCARGRYFDLWGRGTLVTVSS VL: DIQMTQSPSTLSASVGDRVTITCRASQIISSWLAWYQQKPGKAPKLLIYKASSLASGVPSRFSGSGSGTEFTLTISSLQPDDFATYYCQQYKSYSYTFGQGTKLEIK |  |  |  |  |  | − | + | − | −
H1M7814N: anti-STEAP2 antibody, mouse IgG1 Fc, HCVR/LCVR SEQ ID NOs 218/226 (antibody, V domains shown, mouse IgG1 Fc) VH: QVQLVESGGGVVQPGRSLRLSCVASGFTISSYGMNWVRQAPGKGLEWVAVISYDGGNKYSVDSVKGRFTISRDNSKNTLYLQMNSLRAEDSAVYYCARGRYFDLWGRGTLVTVSS VL: DIQMTQSPSTLSASVGDRVTITCRASQSISSWLAWYQQKPGRAPNLLISKASSLKSGVPSRFSGSGSGTEFTLTVSSLQPDDFATYYCQQYYSYSYTFGQGTKLEIK |  |  |  |  |  | − | + | − | −
H2M7811N: anti-STEAP2 antibody, HCVR/LCVR SEQ ID NOs 362/370 (antibody, V domains shown) VH: QVQLVESGGGVVQPGRSLRLSCAVSGFTSSTYGMNWVRQAPGKGLEWVAVISFDGSNKYYADSVKGRFTISRDNSKNTLYLQMSSLRPEDTAVYYCARGRYFDLWGRGTLVTVSS VL: DTQMTQSPSTLSASVGDRVTITCRASQIISSWLAWYQQKPGKAPKLLIYKASSLASGVPSRFSGSGSGTEFTLTISSLQPDDFATYYCQQYKSYSYTFGQGTNLEIK |  |  |  |  |  | − | + | − | −
H2M7807N: anti-STEAP2 antibody, HCVR/LCVR SEQ ID NOs 314/322 (antibody, V domains shown) VH: QVQLVESGGGVVQPGRSLRLSCAVSGFTSSTYGMNWVRQAPGKGLEWVAVISYDGSNKYYADSVKGRFTISRDNSKNTLYLQMNSLRPEDTAVYYCARGRYFDLWGRGTLVTVSS VL: DIQMTQSPSTLSASVGDRVTITCRASQIISSWLAWYQQKPGKAPKLLIYKASSLASGVPSRFSGSGSGTEFTLTISSLQPDDFATYYCQQYKSYSYTFGQGTNLEIK |  |  |  |  |  | − | + | − | −
H1H11162N: human-Fc anti-STEAP2 antibody, HCVR/LCVR SEQ ID NOs 250/258 (antibody, V domains shown, human Fc) VH: QVQLQQSGPGLVKPSQTLSLTCAISGDSVSSNRAAWNWIRQSPSRGLQWLGRTYYRSKWYNDYAVSLRSRITINPVTSKNQVALHMNSVTPEDTAVYYCARAGIVVVPGPETFYYYDHGLDVWGQGTTVTVSS VL: DIQMTQSPSSLSASVGDRVTITCRASQSIRSYLNWYQQKPGKAPELLIHAASSLQSGVPSRFSGSGSGTDFTLTISSLQPEDFASYYCQQSYSAPPITFGQGTRLEIK | 3 | 3 | 2 | +++ | +++ |  |  |  | 
H1H7809N: human-Fc anti-STEAP2 antibody, HCVR SEQ ID NO: 330 (antibody, V domains shown) VH: QVQLVESGGGVVQPGRSLGLSCAASGFTFSSYGMHWVRQAPGKGLEWVAVIWYDGSNKYYVDSVKGRFTISRDNSKNTLYLQMNSLRAEDTAVYYCAREGLRFLENYYYYYGMDVWGQGTTVTVSS VL: EIVLTQSPGTLSLSPGERATLSCRASQSISSTYLAWYQQRPGQAPRLLIYGASSRATGIPDRFSGSGSGTDFTLTISRLEPEDFAVYYCQQYGTSPYTFGQGTKLEIK | 21 | 37 | 3 |  |  |  |  |  | 
